According to paper PMC12648313, “Enhancing the Efficacy, Utility, and Throughput of the Transcription Block Survival Peptide Library Screening Platform” (JACS Au, 2025):

Assays:
FAM-labeled CRE DNA = assay: FP DNA binding, ATF2; settings: ATF2 12 nM-10 μM, 10 nM FAM-CRE DNA; 20 mM potassium phosphate, 50 mM NaCl, 5 mM MgCl2, 10 mM TCEP, pH 7.4; 1 h, room temperature; one site model
[1] = tested on: 9xDLX (H-box) mDHFR reporter; assay: TBS growth assay: transcription block by DLX5 HD / FL; assay type: cell-based, E. coli BL21-Gold; settings: 8 μM TMP; for colony formation on target expression (transcription block): strains 9 (HD) and 10 (FL) vs 8, 9xDLX mDHFR, M9 agar, 0.8 or 0.2 mM IPTG, 30 or 37 °C, three independent experiments
Source text: To highlight the platforms versatility for TFs with distinct DNA recognition motifs, we next constructed a 9xhomeobox (H-Box) system to identify inhibitors of homeodomain-containing TFs, including the DLX (Figure C), pre-B cell leukemia transcription factor (PBX) and orthodenticle homeobox protein (OTX) families. As with the CRE-based design, nine H-box consensus sequences were inserted into the 5′-promoter/UTR region of the mDHFR reporter gene (Figure S4).
(§1) 3 Introduction of H-box DNA sites into the 5′-promoter/UTR region of a mDHFR plasmid enables transcription block by both DLX5 full length and homeodomain. Equal numbers of cells from the control strains (Table ) were plated on selective M9 agar (0 or 8 μM TMP, 0.8 or 0.2 mM IPTG) and incubated (30 or 37 °C) before imaging. Bar charts show % plate coverage for three independent experiments with error bars shown as one standard deviation. Select p values from a t test are indicated (*p ≤ 0.05; **p ≤ 0.01; ns = not significant).
(§2) Enhancing the efficacy, utility and throughput of the Transcription Block Survival peptide library screening platform
(§3) Andrew Brennan1,2, T M Simon Tang1 and Jody M Mason1,2
(§4) 1Department of Life Sciences, University of Bath, Bath BA2 7AY, United Kingdom 2Address correspondence to JMM or AB (j.mason@bath.ac.uk; ab3107@bath.ac.uk) […]
Plasmid constructs: Target cognate binding sequence-containing inserts were produced using PCR fill-in reactions from synthesised primers (Merck). They were then subcloned using XhoI and SphI sites into the pQE16-derivative pES300d WT mDHFR plasmid (Figure S1, S2, S3). […]
(§5) pressure respectively. Three independent growth experiments were conducted for each strain/condition with the percentage of the plate covered by bacterial colonies determined using ImageJ 1.54G. Images were converted to 8-bit, threshold values were set to identify coverage, and the resulting black and white image was measured for percentage coverage in a defined circle excluding the plate edge. Percentage coverage was utilised to quantify both bacterial survival and growth rate.

E. coli = assay: TBS growth without TMP (cellular toxicity of expression); assay type: cell-based, E. coli BL21-Gold; settings: strain 10, 0 μM TMP, 0.8 mM IPTG
Procedure: as §1, §2, §3, §4, §5

cJun bZIP [2] = target: cJun bZIP (UniProt P05412); assay: competition (FP); settings: antagonist peptide ATF2W; FP: chloride salt (buffer and salt concentration truncated in material), 5 mM MgCl2, 10 mM TCEP, pH 7.4; 10 nM FAM-DNA; 1 h incubation, temperature not in …
cJun bZIP [3] = target: cJun bZIP (UniProt P05412); assay: fluorescence polarization; settings: FP: chloride salt (buffer and salt concentration truncated in material), 5 mM MgCl2, 10 mM TCEP, pH 7.4; 10 nM FAM-DNA; 1 h incubation, temperature not in …
[4] = tested on: CREB1 bZIP-CRE DNA (CRE mDHFR reporter); assay: TBS growth assay: transcription block relief / peptide antagonism in E. coli (CREB1/CRE); assay type: cell-based, E. coli BL21-Gold; settings: M9 agar, 8 μM TMP, 1 mM IPTG, three independent experiments
Source text: To validate the new TBS constructs, six BL21-Gold E. coli control strains were generated. Empty plasmids (lacking gene of interest) were used to control for replication and antibiotic stresses (Table ): Control strains 1 and 4 contained mDHFR gene reporter plasmids for 5xCRE and 9xCRE respectively, and two empty plasmids; control strains 2 and 5 contained reporter plasmid, target plasmid encoding the CREB1 basic-leucine zipper (bZIP) domain and one empty plasmid; control strains 3 and 6 contained reporter plasmid, target plasmid and the antagonist plasmid encoding A-CREB (peptide inhibitor of CREB1 comprising a rationally designed acidic extension appended to the N-terminus of the CREB1 LZ).
2 Introduction of CRE DNA sites into the 5′-promoter/UTR region of a mDHFR plasmid facilitates effective transcription block. […]
as §5

FAM-CRE DNA = assay: FP DNA binding, CREB1; settings: pH 7.4
Procedure: (§6) removed before peptide concentration determination.
(§7) Peptide samples were suspended in 20
(§8) Post-melt scans at 20°C confirmed the
(§9) Sequential 2 µL injections of ATF2W (50 µM)
(§10) Data from a control experiment whereby […]
(§11) errors are given as one standard deviation.
(§12) Fluorescence polarisation: Fluorescence polarisation was measured in a CLARIOstar […]
(§13) chloride, 5 mM MgCl2, 10 mM TCEP, pH 7.4 buffer. Palindromic FAM-CRE DNA oligo was […]
(§14) purchased from Merck: 5’[6FAM]- GCGCTGACGTCAGCGC. 200 µM of the oligo was […]
(§15) prepared in water and then annealed by heating to 95°C for 10 minutes before cooling slowly to room temperature to give a 100 µM duplex stock. Samples containing 10 nM FAM-CRE and a serial dilution of ATF2 (12 nM-10 µM) were prepared and incubated at room temperature for 1 hour before transferring to the assay plate for measurement. Data were fit to a one site binding model. For antagonism experiments, the ATF2 concentration required for 80% response was selected. Samples containing 10 nM FAM-TRE, 625 nM ATF2 and a serial dilution of ATF2W (29 nM-12 µM) were prepared and incubated at room temperature for 2 hours before transferring to the assay plate for measurement. CREB1/CRE, cJun/TRE and DLX5/H-box DNA antagonism were determined by the equivalent experiments, using the FAM-CRE oligo above; FAM-TRE DNA oligoes: 5’-[6FAM]-TCTCTGACTCAGAGA, 5’- […]

FAM-H-Box DNA = assay: FP DNA binding, DLX5; settings: pH 7.4
Procedure: as §6, §7, §8, §9, §10, §11, §12, §13, §14, §15

FAM-TRE DNA = assay: FP DNA binding, cJun; settings: pH 7.4
Procedure: as §6, §7, §8, §9, §10, §11, §12, §13, §14, §15

DLX5 HD = DLX5 HD (UniProt P56178 138-198); assay: fluorescence polarization; FP: chloride salt (buffer and salt concentration truncated in material), 5 mM MgCl2, 10 mM TCEP, pH 7.4; 10 nM FAM-DNA; 1 h incubation, temperature not in material; settings: label: 5' 6-FAM; blunt; self-complementary, 2 copies
CREB1 bZIP [5] = target: T1, CREB1 bZIP (UniProt P16220 269-327); assay: as above; settings: chain copies: 2; label: 5' 6-FAM; blunt; self-complementary, 2 copies
T1 sequence: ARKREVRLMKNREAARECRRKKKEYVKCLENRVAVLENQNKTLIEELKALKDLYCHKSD

CREB1 bZIP [6] = target: T1, CREB1 bZIP; assay: competition (FP); antagonist peptide ATF2W; FP: chloride salt (buffer and salt concentration truncated in material), 5 mM MgCl2, 10 mM TCEP, pH 7.4; 10 nM FAM-DNA; 1 h incubation, temperature not in material; settings: chain copies: 2; label: 5' 6-FAM; blunt; self-complementary, 2 copies
ATF2 bZIP [7] = target: T2, ATF2 bZIP (human, UniProt P15336 352-410); assay: fluorescence polarization; 10 nM DNA, ATF2 12 nM-10 uM; FP: chloride salt (buffer and salt concentration truncated in material), 5 mM MgCl2, 10 mM TCEP, pH 7.4; 10 nM FAM-DNA; 1 h incubation, temperature not in material; settings: chain copies: 2; label: 5' 6-FAM; blunt; self-complementary, 2 copies
T2 sequence: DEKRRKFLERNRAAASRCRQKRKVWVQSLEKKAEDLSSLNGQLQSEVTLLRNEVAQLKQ

ATF2 bZIP [8] = target: T2, ATF2 bZIP; assay: competition (FP); antagonist peptide ATF2W 29 nM-12 uM, 625 nM ATF2; FP: chloride salt (buffer and salt concentration truncated in material), 5 mM MgCl2, 10 mM TCEP, pH 7.4; 10 nM FAM-DNA; 1 h incubation, temperature not in material; settings: chain copies: 2; label: 5' 6-FAM; blunt; self-complementary, 2 copies
ATF2 bZIP [9] = target: T2, ATF2 bZIP; assay: competition (FP); antagonist: non-selected library member control peptide; FP: chloride salt (buffer and salt concentration truncated in material), 5 mM MgCl2, 10 mM TCEP, pH 7.4; 10 nM FAM-DNA; 1 h incubation, temperature not in material; settings: chain copies: 2; label: 5' 6-FAM; blunt; self-complementary, 2 copies

Chain of DLX5 HD (P56178 138-198): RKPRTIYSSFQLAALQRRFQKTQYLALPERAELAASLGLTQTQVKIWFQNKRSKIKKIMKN

For “ATF2: human ATF2 bZIP domain spans from Asp352 to Gln410”, which Kd (FAM-labeled CRE DNA) is on record?
Its Kd is 277 ± 19 nM.

DLX5 FL: full-length DLX5 was tested. Which “growth inhibition on target expression, comparison FL vs HD” value ([1]; strain 10 vs 9, optimized conditions: 0.2 mM IPTG or 30 °C) did it give?
The value was “produced a robust transcriptional block and more effectively suppressed E. coli growth than DLX5 HD”.

What about the “colony formation on target expression (transcription block)” value [1] of the same molecule?
The value was “introduced a transcriptional block, resulting in reduced colony formation”.

What about the “growth in absence of TMP (cellular toxicity)” value (E. coli) of the same molecule?
The value was “reduced growth was also observed in the absence of TMP”.

How did the IC50 (cJun bZIP [2]) turn out when “TCTCTGACTCAGAGA (double strand) [FAM-TRE]” was run?
Its IC50 is 1850 nM.

What about the Kd (cJun bZIP [3]) of the same molecule?
The Kd was 330 nM.

With “LEQQLEELAQENEELEKEAEELEQELAELENRVAVLENQNKTLIEELKALKDLYCHKSD [A-CREB, reference compound]” as the molecule, how does the “bacterial growth restoration (relief of transcriptional block)” value ([4]; strains 3 and 6 (5xCRE and 9xCRE mDHFR) expressing CREB1 bZIP and A-CREB, % plate coverage) read?
Its value is “Growth was restored”.

With “CREB1: CREB1 bZIP domain spans from Ala283 to Asp341 (ARKREVRLMKNREAARECRRKKKEYVKCLENRVAVLENQNKTLIEELKALKDLYCHKSD)” as the molecule, how does the “bacterial growth on target expression (transcription block)” value ([4]; strains 2 and 5 (5xCRE and 9xCRE mDHFR)) read?
The value was “markedly reduced growth”.

And the Kd (FAM-CRE DNA)?
Its Kd is 156 ± 26 nM.

With “DLX5: DLX5 HD spans from Val137 to Asn198” as the molecule, how does the “colony formation on target expression (transcription block)” value [1] read?
The value was “less pronounced than in the corresponding CRE system”.

And the Kd (FAM-H-Box DNA)?
The Kd was 383 ± 19 nM.

B1: cJun: purified cJun bZIP (protein)
chain: RIKAERKRMRNRIAASKCRKRKLERIARLEEKVKTLKAQNSELASTANMLREQVAQLKQKVMNH
For B1, which Kd (FAM-TRE DNA) is on record?
The Kd was 330 ± 42 nM.

B2: FAM-H-Box (dsDNA)
DNA 1: TCTCTAATTAGAGA
DNA 2: TCTCTAATTAGAGA
B2 was tested. Which Kd (DLX5 HD) did it give?
The Kd was 383 ± 19 nM.

B3: FAM-CRE (dsDNA)
DNA 1: GCGCTGACGTCAGCGC
DNA 2: GCGCTGACGTCAGCGC
Which Kd (CREB1 bZIP [5]) does the source give for B3 here?
Its Kd is 156 ± 26 nM.

What about the IC50 (CREB1 bZIP [6]) of the same molecule?
The IC50 was 2360 ± 59 nM.

What about the Kd (ATF2 bZIP [7]) of the same molecule?
The Kd was 277 ± 19 nM.

What about the IC50 (ATF2 bZIP [8]) of the same molecule?
Its IC50 is 667 ± 71 nM.

And the IC50 (ATF2 bZIP [9])?
Its IC50 is 3690 ± 110 nM.
